Results reported in PMC5778138, “Interaction of the Morphogenic Protein RodZ with the Bacillus subtilis Min System” (Frontiers in Microbiology, 2017).

Target: T1, His-tagged cytosolic part of MinJ, fluorescently labeled (B. subtilis, labeled with the amine-reactive red fluorescent dye NT-647 NHS)
T1 chain: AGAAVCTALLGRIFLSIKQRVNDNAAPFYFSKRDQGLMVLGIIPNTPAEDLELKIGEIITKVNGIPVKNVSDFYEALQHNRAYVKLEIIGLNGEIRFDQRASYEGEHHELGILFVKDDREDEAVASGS
Assay: MST; NT-647-labeled His-cyt-MinJ at 34 μM, cyt-RodZ titrated from 6.7 nM to 221 μM in 16 capillaries; Monolith NT.115; the methods call the Kd preliminary
Details: both partners purified

B1: His-tagged cytosolic part of RodZ (domain or fragment)
chain: VTELGIRLKEAREEKAMSLDDLQAATKIQKRYLTALEEGNYDIIPGKFYVRAFIKQYAEAVGLDADQLFEEHKKDIPNTYHDDVSEKISGMNLQKEMPKPASKALE
B1 gave a Kd of 5.1 ± 0.6 µM.
